How the values were obtained:
[1] = molecular target: Nucleolysin TIA-1 (endogenous mouse TIA1) (mouse) (UniProt P52912); assay: TIA1 IP-MS, tau KO 2 cortex
[2] = molecular target: Nucleolysin TIA-1 (endogenous mouse TIA1) (mouse) (UniProt P52912); assay: TIA1 IP-MS, WT1 cortex
[3] = molecular target: Nucleolysin TIA-1 (endogenous mouse TIA1) (mouse) (UniProt P52912); assay: TIA1 IP-MS, WT2 cortex
[4] = molecular target: Nucleolysin TIA-1 (endogenous mouse TIA1) (mouse) (UniProt P52912); assay: TIA1 IP-MS, WT3 cortex
[5] = molecular target: Nucleolysin TIA-1 (endogenous mouse TIA1) (mouse) (UniProt P52912); assay: TIA1 IP-MS, tau KO 3 cortex
[6] = molecular target: Nucleolysin TIA-1 (endogenous mouse TIA1) (mouse) (UniProt P52912); assay: TIA1 IP-MS, tau KO 1 cortex

UniProt P52912, sequence (P52912 whole entry): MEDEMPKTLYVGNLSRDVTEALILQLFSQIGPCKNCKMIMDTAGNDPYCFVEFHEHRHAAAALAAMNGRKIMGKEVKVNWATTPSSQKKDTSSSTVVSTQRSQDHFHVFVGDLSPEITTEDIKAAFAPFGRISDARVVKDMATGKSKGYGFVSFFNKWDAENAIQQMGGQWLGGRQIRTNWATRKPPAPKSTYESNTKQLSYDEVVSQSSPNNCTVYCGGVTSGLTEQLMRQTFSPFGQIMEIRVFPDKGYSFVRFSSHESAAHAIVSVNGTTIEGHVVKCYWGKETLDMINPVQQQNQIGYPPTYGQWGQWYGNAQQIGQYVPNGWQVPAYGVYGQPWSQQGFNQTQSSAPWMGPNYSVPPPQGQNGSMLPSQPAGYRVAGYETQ

| Substance | total ion current (normalized to TIA1 = 1000) [1] | total ion current (normalized to TIA1 = 1000) [2] | total ion current (normalized to TIA1 = 1000) [3] | total ion current (normalized to TIA1 = 1000) [4] | total ion current (normalized to TIA1 = 1000) [5] | total ion current (normalized to TIA1 = 1000) [6] |
| --- | --- | --- | --- | --- | --- | --- |
| Prohibitin-2 (from UniProt O35129 2-299) | 292 | 0 | 440 | 171 | 0 | 0 |
| Proteasome subunit alpha type-4 (from UniProt Q9R1P0 1-261) | 0 | 10.5 | 0 | 0 | 0 | 0 |
| Protein Golgb1 | 0 | 0 | 0 | 259 | 0 | 0 |
| Protein NipSnap homolog 1 (from UniProt O55125 36-284) | 27 | 0 | 219 | 0 | 0 | 0 |
| Protein NipSnap homolog 2 (from UniProt O55126 28-281) | 0 | 0 | 81 | 0 | 0 | 0 |
| Protein disulfide-isomerase A3 (from UniProt P27773 25-505) | 36 | 0 | 69.2 | 13.8 | 0 | 0 |
| Protein kinase C and casein kinase substrate in neurons protein 1 (from UniProt Q61644 1-441) | 31.2 | 0 | 70.2 | 18.4 | 0 | 0 |
| Protein kinase C epsilon type (from UniProt P16054 1-737) | 0 | 0 | 78.7 | 0 | 0 | 0 |
| Protein kinase C gamma type (from UniProt P63318 1-697) | 0 | 39.3 | 0 | 0 | 0 | 30.3 |
| Puromycin-sensitive aminopeptidase (from UniProt Q11011 1-920) | 0 | 0 | 0 | 49.8 | 0 | 0 |
| Putative adenosylhomocysteinase 3 (from UniProt Q68FL4 2-613) | 72.5 | 2.62 | 76.3 | 45.1 | 0 | 8.48 |
| Pyridoxal kinase (from UniProt Q8K183 1-312) | 104 | 0 | 80.3 | 0 | 0 | 0 |
| Pyruvate dehydrogenase E1 component subunit beta, mitochondrial (from UniProt Q9D051 31-359) | 51 | 0 | 60.4 | 95.5 | 0 | 0 |
| RNA-binding protein EWS (from UniProt Q61545 1-655) | 0 | 6.73 | 32.5 | 0 | 0 | 0 |
| Rabphilin-3A (from UniProt P47708 1-681) | 0 | 0 | 40.4 | 0 | 0 | 17 |
| Ras-related protein Rab-5A (from UniProt Q9CQD1 1-215) | 185 | 0 | 126 | 302 | 0 | 0 |
| Septin-5 (from UniProt Q9Z2Q6 1-369) | 85.5 | 0 | 194 | 114 | 0 | 0 |
| Serine protease HTRA1 (from UniProt Q9R118 23-480) | 0 | 5.71 | 0 | 0 | 0 | 7.66 |
| Serine--tRNA ligase, cytoplasmic (from UniProt P26638 1-512) | 0 | 0 | 65.8 | 0 | 0 | 0 |
| Serine/arginine-rich splicing factor 2 (from UniProt Q62093 2-221) | 67.1 | 0 | 306 | 71.1 | 0 | 0 |
| Serine/arginine-rich splicing factor 4 (from UniProt Q8VE97 1-489) | 0 | 0 | 41.6 | 0 | 0 | 0 |
| Serine/threonine-protein phosphatase PP1-beta catalytic subunit (from UniProt P62141 2-327) | 24.6 | 3.65 | 136 | 79.5 | 0 | 99.4 |

— US20190142860A1, “NUCLEIC ACID BASED TIA-1 INHIBITORS” (Aquinnah Pharmaceuticals, Inc., priority 2015, published 2019)
